Laboratory results taken from PMC4045858, “Biochemical Characterization of Human Gluconokinase and the Proposed Metabolic Impact of Gluconic Acid as Determined by Constraint Based Metabolic Network Analysis” (PLoS ONE, 2014).

How the values were obtained:
purified protein [1] = substrate: Nc1ncnc2c1ncn2[C@@H]1O[C@H](COP(=O)(O)OP(=O)(O)OP(=O)(O)O)[C@@H](O)[C@H]1O; assay: purified protein; format: biochemical, Homo sapiens; details: gluconate as fixed co-substrate, 0.65 mM NADP+, 100 mM phosphate, 40 mM NaCl, 2.5 mM MgCl2, pH 7.2, 0.25 µM enzyme
purified protein [2] = substrate: O=C(O)[C@H](O)[C@@H](O)[C@H](O)[C@H](O)CO; assay: purified protein; format: biochemical, Homo sapiens; details: 1 mM ATP, 0.65 mM NADP+, 100 mM phosphate, 40 mM NaCl, 2.5 mM MgCl2, pH 7.2, 0.25 µM enzyme

B1: human GntK (gluconokinase isoform I, C9orf103) (Homo sapiens) (protein)
chain: MAAPGALLVMGVSGSGKSTVGALLASELGWKFYDADDYHPEENRRKMGKGIPLNDQDRIPWLCNLHDILLRDVASGQRVVLACSALKKTYRDILTQGKDGVALKCEESGKEAKQAEMQLLVVHLSGSFEVISGRLLKREGHFMPPELLQSQFETLEPPAAPENFIQISVDKNVSEIIATIMETLKMK
notes: dimer, also tetramer
For B1, the Km (purified protein [1]) was 343.8 ± 13.9 µM, the Vmax (purified protein [1]) was 144 µM/min and the kcat (purified protein [1]) was 9.5 ± 0.5 s⁻¹. The kcat/Km (purified protein [1]) was 28000 ± 2000 M⁻¹ s⁻¹, the Km (purified protein [2]) was 106.4 ± 18.5 µM and the Vmax (purified protein [2]) was 138 µM/min. For the same protein, the kcat (purified protein [2]) was 9.3 ± 0.5 s⁻¹ and the kcat/Km (purified protein [2]) was 89000 ± 13000 M⁻¹ s⁻¹.
